Reference: patent publication US20240052042A1 (Novartis, published 2024)

T1: rat NPR1 (rNPR1) (rat, UniProt P18910 29-469, limits assumed)
T1 construct: Soluble antigen
T1 sequence: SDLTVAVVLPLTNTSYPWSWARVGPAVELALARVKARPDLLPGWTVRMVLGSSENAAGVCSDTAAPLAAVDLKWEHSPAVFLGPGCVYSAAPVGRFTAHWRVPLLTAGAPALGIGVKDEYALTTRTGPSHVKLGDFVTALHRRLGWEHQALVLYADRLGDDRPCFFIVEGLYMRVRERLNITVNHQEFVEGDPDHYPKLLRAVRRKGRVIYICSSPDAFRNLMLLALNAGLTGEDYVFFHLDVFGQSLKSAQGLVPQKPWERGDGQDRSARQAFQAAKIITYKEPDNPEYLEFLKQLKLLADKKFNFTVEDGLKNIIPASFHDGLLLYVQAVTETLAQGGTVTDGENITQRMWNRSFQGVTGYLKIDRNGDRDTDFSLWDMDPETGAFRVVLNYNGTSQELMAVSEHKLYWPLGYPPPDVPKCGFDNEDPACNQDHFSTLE

T2: human Natriuretic Peptide Receptor 1 (hNPR1) (human, UniProt P16066 33-473, limits assumed)
T2 construct: pannings used NPR1-hFc; also called NPR1-hFc
T2 sequence: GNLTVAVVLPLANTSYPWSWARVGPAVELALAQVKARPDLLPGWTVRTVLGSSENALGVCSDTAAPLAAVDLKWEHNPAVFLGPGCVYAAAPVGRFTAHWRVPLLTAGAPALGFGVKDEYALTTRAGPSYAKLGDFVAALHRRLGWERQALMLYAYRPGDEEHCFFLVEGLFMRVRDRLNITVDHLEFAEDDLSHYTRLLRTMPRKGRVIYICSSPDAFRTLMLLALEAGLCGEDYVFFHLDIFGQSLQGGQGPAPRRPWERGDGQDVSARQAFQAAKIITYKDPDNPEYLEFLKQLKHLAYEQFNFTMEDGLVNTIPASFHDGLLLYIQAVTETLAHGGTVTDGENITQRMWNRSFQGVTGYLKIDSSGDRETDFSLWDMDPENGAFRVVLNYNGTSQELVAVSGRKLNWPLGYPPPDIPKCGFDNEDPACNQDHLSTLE

T3: hNPR1-ANP complex (human, UniProt P01160 124-151, limits assumed)
T3 construct: hNPR1 antigen in the presence of ANP; also called hNPR1 + 100 nM ANP
T3 sequence: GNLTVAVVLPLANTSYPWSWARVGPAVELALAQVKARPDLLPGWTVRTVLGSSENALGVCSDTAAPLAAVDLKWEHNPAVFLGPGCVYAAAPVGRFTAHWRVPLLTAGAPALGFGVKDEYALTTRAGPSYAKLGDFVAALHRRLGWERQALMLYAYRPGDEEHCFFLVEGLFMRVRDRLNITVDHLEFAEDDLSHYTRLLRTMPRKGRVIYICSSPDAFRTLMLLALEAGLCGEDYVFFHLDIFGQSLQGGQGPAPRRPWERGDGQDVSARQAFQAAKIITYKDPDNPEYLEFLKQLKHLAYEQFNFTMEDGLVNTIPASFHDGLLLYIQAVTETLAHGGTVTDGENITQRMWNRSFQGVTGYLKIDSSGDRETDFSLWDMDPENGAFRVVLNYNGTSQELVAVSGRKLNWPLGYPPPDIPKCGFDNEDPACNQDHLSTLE
T3 sequence (peptide): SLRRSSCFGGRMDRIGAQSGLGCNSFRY

T4: rNPR1-ANP complex (rat, UniProt P01160 124-151 (human entry), limits assumed)
T4 construct: rNPR1 antigen in the presence of ANP; also called rNPR1 + 100 nM ANP
T4 sequence: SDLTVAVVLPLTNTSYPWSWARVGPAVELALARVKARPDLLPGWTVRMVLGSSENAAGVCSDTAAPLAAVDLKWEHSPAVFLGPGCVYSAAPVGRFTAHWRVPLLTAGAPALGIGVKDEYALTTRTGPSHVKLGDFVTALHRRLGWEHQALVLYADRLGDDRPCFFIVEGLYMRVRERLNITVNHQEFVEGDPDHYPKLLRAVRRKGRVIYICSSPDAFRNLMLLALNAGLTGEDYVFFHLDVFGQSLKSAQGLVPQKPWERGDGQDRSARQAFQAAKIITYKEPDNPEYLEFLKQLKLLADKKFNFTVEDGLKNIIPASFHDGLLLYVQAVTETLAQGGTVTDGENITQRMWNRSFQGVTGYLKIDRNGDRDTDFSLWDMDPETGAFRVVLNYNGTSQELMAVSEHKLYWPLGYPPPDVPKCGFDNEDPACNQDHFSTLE
T4 sequence (peptide): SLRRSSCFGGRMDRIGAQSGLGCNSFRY

T5: human NPR1 on CHO-K1 cells (human, UniProt P16066 33-1061)
T5 sequence: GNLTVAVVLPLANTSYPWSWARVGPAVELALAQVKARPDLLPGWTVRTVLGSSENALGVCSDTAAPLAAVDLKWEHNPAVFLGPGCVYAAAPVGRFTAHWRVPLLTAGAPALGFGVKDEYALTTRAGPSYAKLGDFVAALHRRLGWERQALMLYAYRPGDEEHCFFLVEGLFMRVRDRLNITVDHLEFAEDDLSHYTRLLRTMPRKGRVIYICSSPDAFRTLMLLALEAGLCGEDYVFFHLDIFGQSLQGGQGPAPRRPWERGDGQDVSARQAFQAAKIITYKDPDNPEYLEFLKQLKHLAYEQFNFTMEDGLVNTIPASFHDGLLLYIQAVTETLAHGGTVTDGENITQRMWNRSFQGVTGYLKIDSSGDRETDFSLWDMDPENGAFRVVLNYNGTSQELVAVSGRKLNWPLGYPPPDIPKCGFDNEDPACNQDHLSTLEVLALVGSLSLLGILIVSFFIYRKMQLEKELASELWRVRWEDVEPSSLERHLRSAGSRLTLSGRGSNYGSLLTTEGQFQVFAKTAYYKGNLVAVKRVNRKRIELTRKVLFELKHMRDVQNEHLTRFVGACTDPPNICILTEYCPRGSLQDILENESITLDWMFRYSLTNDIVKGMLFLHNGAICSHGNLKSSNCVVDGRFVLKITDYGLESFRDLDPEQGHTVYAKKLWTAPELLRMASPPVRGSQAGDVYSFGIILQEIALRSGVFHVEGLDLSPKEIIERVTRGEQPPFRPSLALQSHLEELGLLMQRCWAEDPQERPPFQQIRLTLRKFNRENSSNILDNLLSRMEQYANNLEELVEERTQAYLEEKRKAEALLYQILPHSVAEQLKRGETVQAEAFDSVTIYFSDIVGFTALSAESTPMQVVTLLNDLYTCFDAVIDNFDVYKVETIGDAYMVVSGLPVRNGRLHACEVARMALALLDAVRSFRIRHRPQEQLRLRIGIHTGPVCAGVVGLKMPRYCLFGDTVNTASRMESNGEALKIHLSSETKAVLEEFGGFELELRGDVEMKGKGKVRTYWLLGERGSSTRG

T6: human NPR2 on CHO cells (human, UniProt P20594 23-1047)
T6 sequence (looked up): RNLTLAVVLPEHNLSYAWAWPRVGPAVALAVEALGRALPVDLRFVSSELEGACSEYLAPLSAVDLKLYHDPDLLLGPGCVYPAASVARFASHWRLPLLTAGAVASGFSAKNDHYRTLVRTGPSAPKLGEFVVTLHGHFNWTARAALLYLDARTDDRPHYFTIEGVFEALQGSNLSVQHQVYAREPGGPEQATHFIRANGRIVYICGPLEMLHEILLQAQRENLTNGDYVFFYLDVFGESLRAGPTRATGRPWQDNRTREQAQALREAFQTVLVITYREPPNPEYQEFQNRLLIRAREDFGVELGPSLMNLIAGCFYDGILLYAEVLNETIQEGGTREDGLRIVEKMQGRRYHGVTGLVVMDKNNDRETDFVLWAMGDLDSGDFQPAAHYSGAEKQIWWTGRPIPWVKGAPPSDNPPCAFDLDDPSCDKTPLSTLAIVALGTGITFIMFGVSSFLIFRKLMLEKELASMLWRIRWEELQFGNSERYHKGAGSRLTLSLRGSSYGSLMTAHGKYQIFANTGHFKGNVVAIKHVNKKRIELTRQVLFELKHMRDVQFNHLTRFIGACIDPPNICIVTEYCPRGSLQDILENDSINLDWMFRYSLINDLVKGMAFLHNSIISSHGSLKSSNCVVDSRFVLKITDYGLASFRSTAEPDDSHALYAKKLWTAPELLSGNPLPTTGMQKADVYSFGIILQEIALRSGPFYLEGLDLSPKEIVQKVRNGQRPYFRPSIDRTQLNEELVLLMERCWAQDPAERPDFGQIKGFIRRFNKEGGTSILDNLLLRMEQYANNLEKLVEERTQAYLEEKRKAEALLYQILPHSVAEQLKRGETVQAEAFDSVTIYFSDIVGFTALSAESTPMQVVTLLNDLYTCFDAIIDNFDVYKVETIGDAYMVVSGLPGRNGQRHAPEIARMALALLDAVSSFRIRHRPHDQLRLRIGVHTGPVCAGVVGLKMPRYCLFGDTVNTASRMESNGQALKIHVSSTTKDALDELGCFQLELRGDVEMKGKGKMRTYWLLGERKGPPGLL


Assays:
[1] = target: T1, rat NPR1 (rNPR1); assay: SET, FabCys
[2] = target: T2, human Natriuretic Peptide Receptor 1 …; assay: SET, FabCys
[3] = target: T3, hNPR1-ANP complex; assay: SET, FabCys
[4] = target: T1, rat NPR1 (rNPR1); assay: SET, FabCys; remark: listed apart in the source
[5] = target: T4, rNPR1-ANP complex; assay: SET, FabCys
[6] = target: T5, human NPR1 on CHO-K1 cells; assay: cell-based or functional assay
[7] = target: T6, human NPR2 on CHO cells; assay: cell-based or functional assay

Binder	rat/human KD ratio [1]	Kd [2] [nM]	Kd [3] [nM]	Kd [4] [nM]	Kd [5] [nM]	cGMP conc [nM] at 2 µM FabCys, +0.075 nM ANP [6] [nM]	cGMP conc [nM] at 2 µM FabCys, without ANP [6] [nM]	cGMP generation EC50 [7] [nM]	cGMP generation Y max (% of ANP) [7]
XX01 (FabCys format) (Fab, V domains shown, Monovalent FabCys) VH: EVQLLESGGGLVQPGGSLRLSCAASGFTFNTHYIHWVRQAPGKGLEWVSSISSSGQSTYYADSVKGRFTISRDNSKNTLYLQMNSLRAEDTAVYYCARERGYVYYHMFDPWGQGTLVTVSS VL: DIVLTQSPATLSLSPGERATLSCRASQSITRNYLAWYQQKPGQAPRLLIYGASSRATGIPARFSGSGSGTDFTLTISSLEPEDFAVYYCQQHSMYPRTFGQGTKVEIK	< 5	43	0.3	1.4	0.5	–	–	–	–
XX08 (FabCys format) (Fab, V domains shown, Monovalent FabCys) VH: EVQLLESGGGLVQPGGSLRLSCAASGFTFNTHYIHWVRQAPGKGLEWVSSIGGQGGMTLYADSVKGRFTISRDNSKNTLYLQMNSLRAEDTAVYYCARERGYVYYHMFDPWGQGTLVTVSS VL: DIVLTQSPATLSLSPGERATLSCRASQSITRNYLAWYQQKPGQAPRLLIYGASSRATGIPARFSGSGSGTDFTLTISSLEPEDFAVYYCQQHSMYPRTFGQGTKVEIK	< 5	46	0.3	1.8	0.2	–	–	–	–
WW06 (FabCys format) (Fab, V domains shown) VH: QVQLVQSGAEVKKPGESLKISCKGSGYSFTSYWIAWVRQMPGKGLEWMGRIDPDNSYTRYSPSFQGQVTISADKSISTAYLQWSSLKASDTAMYYCARWLSPGYALGEQPAGMDHWGQGTLVTVSS VL: DIVLTQPPSVSGAPGQRVTISCTGSSSNIGAGYAVHWYQQLPGTAPKLLIYSNNKRPSGVPDRFSGSKSGTSASLAITGLQAEDEADYYCQSYDLQKSSRVFGGGTKLTVL	–	–	–	–	–	251	281	–	–
XX16 (anti-NPR1 IgG) (antibody, V domains shown) VH: EVQLLESGGGLVQPGGSLRLSCAASGFTFSSYWMNWVRQAPGKGLEWVSVIESKGNYIFYADSVKGRFTISRDNSKNTLYLQMNSLRAEDTAVYYCARDRYSMIYSYGAGAFDYWGQGTLVTVSS VL: DIQMTQSPSSLSASVGDRVTITCRASQGISSYLAWYQQKPGKAPKLLIYTASTLQSGVPSRFSGSGSGTDFTLTISSLQPEDFATYYCQQTWRKPRTFGQGTKVEIK	–	–	–	–	–	–	–	> 500	< 1 % of ANP
